Laboratory results taken from article PMC3785434.
Each block holds one substance with its values, some of them ahead of it.

Key:
Test in all cases: SEC; HiLoad 16/60 Superdex 75, 50 mM sodium phosphate pH 7.4, 50 µg sample, 0.6 mL/min, calibrated with mass standards; self-association of the free light chain (dimer)
[1] = biological target: recombinant free immunoglobulin lambda light chain of AL amyloidosis patient AL-2 (human) (UniProt P01701)
[2] = biological target: recombinant free immunoglobulin lambda light chain of AL amyloidosis patient AL-1 (human) (UniProt P01699)
[3] = biological target: recombinant free immunoglobulin lambda light chain of AL amyloidosis patient AL-3 (human) (UniProt P01699)
[4] = biological target: Bence Jones protein from AL-2 patient (human) (UniProt P01701)

stoichiometry N [1]: 2
Substance: recombinant free immunoglobulin lambda light chain of AL amyloidosis patient AL-2 (from UniProt P01701 20-117)

stoichiometry N [2]: 2
Substance: recombinant free immunoglobulin lambda light chain of AL amyloidosis patient AL-1 (from UniProt P01699 20-117)

stoichiometry N [3]: 2
Substance: recombinant free immunoglobulin lambda light chain of AL amyloidosis patient AL-3 (from UniProt P01699 20-117)

stoichiometry N [4]: 2
Substance: Bence Jones protein from AL-2 patient (from UniProt P01701 20-117) (natural protein)
